Results taken from patent publication US8361965B2, “Recombinant chimeric protein of neutrophil inhibitory factor and hirugen, and pharmaceutical composition thereof” (Lunan Pharmaceutical Group Corporation, priority 2008, dated 2013).
Entries after “also recorded” stand apart in the source; their conditions may differ. Like-named read-outs stand apart in the source and are kept apart here.

Columns and labels:
[1] = tested on: cerebral ischemia in rats subjected to middle cerebral artery occlusion; assay type: in vivo, Wistar rats; conditions: for behavioral score / pathological section of brain (cerebral cortex nerve cells): 2 mg/kg bid caudal vein; for behavioral score: full score 11; for pathological section of brain (cerebral cortex nerve cells): HE, compared with model group
[2] = tested on: experimental cerebral hematoma in rats; experiment: effects on experimental cerebral hematoma in rats; assay type: in vivo, SD rats; design: key to behavioral score: neurologic defect score, full score 11; higher = more severe disorder; conditions: for behavioral score / Brain water content (%): 2 mg/kg bid caudal vein; for behavioral score: full score 11; for Brain water content (%): dry and wet method; for degree of pathological change, remaining cases: 2-3 cases per group
Method: SD rats were randomly divided into 4 groups (8 animals per group), including model group, NHH group, NIF group and TNHH group. The rats in each group were anesthetized by chloral hydrate, and then 0.1 ml blood was collected by amputation of tail. The rats were fixed in a stereotaxic apparatus. Median incision of scalp was performed and the periosteum was cut open to expose bregma. Subsequently, a small hole with a diameter of 1 mm was perforated for needle insertion of microsyringe fixed on the stereotaxic apparatus with insertion depth of 5.8 mm (i.e to the position of caudate nucleus) at the site which was 1 mm rearward to the bregma and 3 mm left to the midline, and then 0.1 ml autoblood was injected slowly. Neurological functional defect score was immediately evaluated based on the evaluation criterion after the animal got conscious. The animal with behavior score less than 11 was selected in this study. Behavior score evaluation was continuously carried out after the establishment of model till the end of the experiment.
The neurologic function defect score was evaluated at 5 time points of 4 h, 12 h, 24 h, 48 h and 72 h after the model establishment. Changes of brain water content and histopathological observation were performed at 72 h after the model establishment on sacrificed rats.
Corresponding medicaments (2 mg/kg, bid) were administered through the caudal vein to animals with administration volume of 1 ml/100 g in each group after model animal was successfully established (according to the score less than 11 based on the behavior score evaluation), while the model group received physiological saline in the corresponding volume.
The brain was taken out immediately after the sacrifice of animals, and then […] ectocinerea (cortex was removed) at the edge of haematoma was collected. The brain water content was determined using dry and wet method based on the following formula: Brain water content=(wet weight−dry weight)/wet weight×100%
The brain was immediately taken out by decollation at selected time points, and it was sliced up to be 2 mm thick along the coronal section and then fixed in 10% formaldehyde. The slices were stained by regular HE and mounted. Then the pathological changes occurred in pathological region and the neighboring brain tissues were observed.
Evaluation was performed at the time of 4 h, 12 h, 24 h, 48 h and 72 h after surgery. The method was described as follows:
The flection of forelimbs was observed by lifting the rat by its tail. If the forelimbs symmetrically extended toward the floor, the score was 0. While if wrist flection, or elbow inflection, or internal rotation of shoulder, or both elbow inflection and internal rotation of shoulder occurred to forelimbs of the rat on the opposite side of the surgery part, it was evaluated as scores of 1, 2, 3 and 4, respectively.
The animal was placed on flat floor, and then both shoulders were pushed to move towards the opposite side to examine the resistance. If the resistances on both sides were equal and forceful, it was evaluated as 0. While if the resistance decreased slightly, mildly or severely when pushed to the opposite side of the surgery part, it was evaluated as 1, 2 or 3, respectively.
Both forelimbs of the animal were placed on a metal mesh to observe the muscular tension. The rat with equal and forceful muscular tension of both forelimbs was evaluated as 0. In the same way, the rat was evaluated as 1, 2 or 3, respectively with the reduction of muscular tension on the opposite side of the surgery part mentioned above.
The animal tended to keep turning around to one side was evaluated as 1. Based on the evaluation criterion (with full score of 11), the higher the score was evaluated, the more severe the behavior disorder was.

leukocyte adhesion = experiment: anti-leukocyte adhesion activity, in vitro comparative analysis; assay type: cell-based; conditions: in vitro
thrombin = thrombin (Homo sapiens, UniProt P00734); experiment: antithrombin activity, in vitro comparative analysis; assay type: biochemical; design: TNHH-G15/n3 and TNHH have the same antithrombin activity
[3] = 2 mg/kg bid, brain pathological section

Row | Molecule | behavioral score ([1]; 4 h) | behavioral score ([1]; 8 h) | behavioral score ([1]; 24 h) | behavioral score ([1]; 48 h) | behavioral score ([1]; 72 h) | pathological section of brain (cerebral cortex nerve cells) [1] | Cerebral infarction volume (%) ([1]; 72 h) | behavioral score ([2]; 4 h) | behavioral score ([2]; 12 h) | behavioral score ([2]; 24 h) | behavioral score ([2]; 48 h) | Brain water content (%) ([2]; 72 h) | behavioral score ([2]; 72 h) | degree of pathological change, remaining cases [2, 3] | anti-leukocyte adhesion activity (leukocyte adhesion) [Unit/mg] | antithrombin activity (thrombin) | degree of pathological change, most cases ([2]; 2 mg/kg bid, brain pathological section, model group mostly ++→+++)
1 | NHH: bifunctional chimeric protein NIF-(Gly)5-hirugen, 274 amino acids, of Chinese patent application 031011551; control protein (protein) NEHNLRCPQNGTEMPGFNDSIRLQFLAMHNGYRSKLALGHISITEESESDDDDDFGFLPDFAPRASKMRYLEYDCEAEKSAYMSARNCSDSSSPPEGYDENKYIFENSNNISEAALKAMISWAKEAFNLNKTKEGEGVLYRSNHDISNFANLAWDAREKFGCAVVNCPLGEIDDETNHDGETYATTIHVVCHYPKINKTEGQPIYKVGTPCDDCSEYTKKADNTTSADPVCIPDDGVCFIGSKADYDSKEFYRFRELGGGGGNGDFEEIPEEYL | 8.2 ± 1.7 | 8.2 ± 1.7 | 8.0 ± 1.4 | 6.5 ± 1.4 | 5.7 ± 1.2 | less pathological changes; also recorded: less regular arrangements, a portion of deeply stained nucleus, and some cytoplasmic shrinkage or disappearance | 25.2 ± 5.2 | 2.14 ± 0.69 | 1.86 ± 0.90 | 2.43 ± 1.00 | 2.57 ± 0.13 | 78.66 ± 0.55 | 3.57 ± 1.72 | +→++ | 650 |  | 
2 | NIF: Neutrophil inhibitory factor, 257 amino acids; prepared by Chongqing Fujin Biology and Medicine Company (protein) NEHNLRCPQNGTEMPGFNDSIRLQFLAMHNGYRSKLALGHISITEESESDDDDDFGFLPDFAPRASKMRYLEYDCEAEKSAYMSARNCSDSSSPPEGYDENKYIFENSNNISEAALKAMISWAKEAFNLNKTKEGEGVLYRSNHDISNFANLAWDAREKFGCAVVNCPLGEIDDETNHDGETYATTIHVVCHYPKINKTEGQPIYKVGTPCDDCSEYTKKADNTTSADPVCIPDDGVCFIGSKADYDSKEFYRFREL | 6.2 ± 0.8 | 6.5 ± 1.2 | 5.5 ± 0.5 | 5.5 ± 0.4 | 5.5 ± 0.5 | less pathological changes; also recorded: less regular arrangements, a portion of deeply stained nucleus, and some cytoplasmic shrinkage or disappearance | 24.9 ± 9.6 | 1.86 ± 0.90 | 2.14 ± 0.90 | 2.43 ± 0.53 | 3.14 ± 0.90 | 79.36 ± 0.47 | 4.14 ± 1.68 | +→++ | 750 | None | ±→+
